The results in this text go back to patent US20150196656A1 (IGF ONCOLOGY, published 2015).

In test [1] the target is T1, type 1 IGF receptor (human, UniProt P08069 31-1367).
T1 construct: whole, on cells; also called IGF-1 receptor; IGF-1R
Kind of test: competition binding to IGF receptors against radioactive wild type IGF; approximate KD. On the procedure: 200 ul of each of these was mixed rapidly with 1.8 ml of refold buffer. Refold buffer was 1.4 M urea, 100 mM glycine, 0.5 M NaCl, 19% ethanol, 0.5 mM GSSG, 4 mM GSH, pH 9.5.

The target of test [2] is dihydrofolate reductase. Kind of test: cell-based or functional assay. More on the design: unit not given beside the values.

T1 sequence (P08069 31-1367): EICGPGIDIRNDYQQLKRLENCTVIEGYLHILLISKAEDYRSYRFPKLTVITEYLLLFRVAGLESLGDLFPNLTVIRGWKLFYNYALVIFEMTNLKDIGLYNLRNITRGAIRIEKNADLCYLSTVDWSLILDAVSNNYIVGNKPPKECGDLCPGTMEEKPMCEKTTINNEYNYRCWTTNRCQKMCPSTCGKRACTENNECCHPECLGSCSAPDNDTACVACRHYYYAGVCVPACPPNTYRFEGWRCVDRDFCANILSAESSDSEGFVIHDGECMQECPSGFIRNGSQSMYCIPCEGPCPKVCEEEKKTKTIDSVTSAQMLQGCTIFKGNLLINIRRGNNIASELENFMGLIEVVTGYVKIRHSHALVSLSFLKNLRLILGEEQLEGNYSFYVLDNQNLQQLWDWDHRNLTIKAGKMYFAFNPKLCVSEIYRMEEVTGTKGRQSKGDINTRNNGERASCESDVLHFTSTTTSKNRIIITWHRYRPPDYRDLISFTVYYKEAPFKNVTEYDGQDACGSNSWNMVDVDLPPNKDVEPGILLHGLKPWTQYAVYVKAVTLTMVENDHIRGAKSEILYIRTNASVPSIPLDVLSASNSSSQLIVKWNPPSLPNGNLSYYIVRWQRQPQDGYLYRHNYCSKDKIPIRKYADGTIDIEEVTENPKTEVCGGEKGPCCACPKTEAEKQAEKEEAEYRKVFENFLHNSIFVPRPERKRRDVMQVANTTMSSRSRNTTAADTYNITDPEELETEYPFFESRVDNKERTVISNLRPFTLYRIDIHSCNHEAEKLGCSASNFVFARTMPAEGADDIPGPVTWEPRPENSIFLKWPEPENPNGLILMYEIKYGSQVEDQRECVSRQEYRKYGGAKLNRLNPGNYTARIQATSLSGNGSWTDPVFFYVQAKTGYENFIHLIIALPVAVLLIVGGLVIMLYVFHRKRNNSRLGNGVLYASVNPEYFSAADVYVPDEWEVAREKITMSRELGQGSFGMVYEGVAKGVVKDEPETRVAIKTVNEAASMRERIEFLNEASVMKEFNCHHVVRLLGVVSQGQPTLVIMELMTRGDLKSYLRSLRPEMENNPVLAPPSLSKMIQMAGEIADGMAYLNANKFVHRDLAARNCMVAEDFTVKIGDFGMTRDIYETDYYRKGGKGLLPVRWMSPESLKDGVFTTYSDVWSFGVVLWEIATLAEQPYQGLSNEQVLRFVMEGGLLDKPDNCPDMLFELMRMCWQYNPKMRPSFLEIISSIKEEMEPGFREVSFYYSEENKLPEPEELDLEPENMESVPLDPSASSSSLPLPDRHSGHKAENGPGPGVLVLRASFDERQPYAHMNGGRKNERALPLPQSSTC

B1: 785IGF (ligand)
chain: MVKQIESKTAFQEALDAAGDKLVVVDFSATWCGHCKMIKPFFHSLSEKYSNVIFLEVDVDDSQDVASESEVKSMPTFQFFKKGQKVGEFSGANKEKLEATINELVGSKSGHHHHHHSAKGFVNQHLCGSHLVEALYLVCGDRGFYFNKPTGYGSSSRRAPQTGIVDECCFRSCDLRRLEMYCAPLKPAKSA
notes: also called mutTrx-IGF132
For B1, the Kd in test [1] is about 40 nM.

B2: LR3IGF-MTX (other)
chain: MFPAMPLSSLFVNGPRTLCGALVDALQFVCGDRGFYFNKPTGYGSSSRRAPQTGIVDECCFRSCDLRRLEMYCAPLKPAKSEA
modifications: methotrexate attached to amino groups; MTX:protein ratio of 2.8
As for B2, the “IC50 (inhibition of dihydrofolate reductase)” value in test [2] is 99.

B3: 403IGF (ligand)
chain: MTSGHHHHHHSAGVNGFVNQHLCGSHLVEALYLVCGDRGFYFNKPTGYGSSSRRAPQTGIVDECCFRSCDLRRLEMYCAPLKPAKSA
notes: also called His6-IGF
On to B3, for which, in test [1], the Kd is about 2 nM.

B4: 764IGF (ligand)
chain: MVKGKHHHHHHNGKGKSKFVNQHLCGSHLVEALYLVCGDRGFYFNKPTGYGSSSRRAPQTGIVDECCFRSCDLRRLEMYCAPLKPAKSA
notes: also called His6-K5-IGF132
For B4, the Kd in test [1] was about 100 nM.

Usually Kd stands for a measure of binding affinity in units of concentration.
